Experimental data from paper PMC7385628, “Molecular determinants for dsDNA translocation by the transcription-repair coupling and evolvability factor Mfd”.

B1: 21mer dsDNA (cryo-EM) (dsDNA)
DNA 1: ATAGGATACTTACAGCCATCG
DNA 2: CGATGGCTGTAAGTATCCTAT

Key:
[1] = test system: Mfd D7-AAA;H842A (Escherichia coli); experiment: fluorescence anisotropy; conditions: 10 nM labeled DNA, 2 mM nucleotide (ADP-AlFx from ADP, 10 mM NaF, 2 mM AlCl3), buffer, pH and temperature not in the material. …
Mfd wild type [2] = target: T1, Mfd wild type (Escherichia coli, UniProt P30958 1-1148); experiment: fluorescence anisotropy; conditions: 10 nM labeled DNA, 2 mM nucleotide (ADP-AlFx from ADP, 10 mM NaF, 2 mM AlCl3), buffer, pH and temperature not in the material. …
T1 sequence (P30958 whole entry): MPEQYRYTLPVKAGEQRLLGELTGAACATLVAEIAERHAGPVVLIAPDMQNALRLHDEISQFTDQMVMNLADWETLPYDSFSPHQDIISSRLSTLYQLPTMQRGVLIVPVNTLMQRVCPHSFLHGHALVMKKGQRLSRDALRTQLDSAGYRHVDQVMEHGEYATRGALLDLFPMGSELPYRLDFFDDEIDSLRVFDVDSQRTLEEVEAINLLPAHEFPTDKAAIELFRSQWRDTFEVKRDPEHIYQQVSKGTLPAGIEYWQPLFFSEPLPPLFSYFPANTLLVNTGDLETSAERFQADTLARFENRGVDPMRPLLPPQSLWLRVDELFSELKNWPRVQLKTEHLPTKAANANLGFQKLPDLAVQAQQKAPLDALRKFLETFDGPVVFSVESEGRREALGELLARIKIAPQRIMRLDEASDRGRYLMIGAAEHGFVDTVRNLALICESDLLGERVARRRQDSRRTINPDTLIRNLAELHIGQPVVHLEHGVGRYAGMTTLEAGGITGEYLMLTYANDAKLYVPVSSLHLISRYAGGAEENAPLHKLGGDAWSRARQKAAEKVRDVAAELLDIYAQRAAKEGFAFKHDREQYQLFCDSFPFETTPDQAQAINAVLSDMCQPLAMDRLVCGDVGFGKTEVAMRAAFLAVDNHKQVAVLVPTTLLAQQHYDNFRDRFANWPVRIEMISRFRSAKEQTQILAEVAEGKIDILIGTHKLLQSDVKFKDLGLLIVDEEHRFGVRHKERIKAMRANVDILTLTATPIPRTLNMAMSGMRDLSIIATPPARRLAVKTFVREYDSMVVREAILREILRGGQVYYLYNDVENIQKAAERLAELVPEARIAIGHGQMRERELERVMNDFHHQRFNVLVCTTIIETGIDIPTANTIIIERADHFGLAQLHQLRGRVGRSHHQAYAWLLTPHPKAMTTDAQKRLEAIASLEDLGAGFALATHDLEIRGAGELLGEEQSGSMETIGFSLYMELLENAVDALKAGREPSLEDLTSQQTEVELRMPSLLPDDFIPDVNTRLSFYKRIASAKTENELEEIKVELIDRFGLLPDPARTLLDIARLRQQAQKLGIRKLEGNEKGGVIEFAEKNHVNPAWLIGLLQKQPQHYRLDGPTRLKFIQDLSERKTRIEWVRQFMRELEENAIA

Mfd wild type [3] = target: T1, Mfd wild type; experiment: cryo-EM structure (5.5 A); 2 mM ADP, 10 mM NaF, 1 mM AlCl3, Mg2+; Fluorescence anisotropy, 10 nM labeled DNA, 2 mM nucleotide (ADP-AlFx from ADP, 10 mM NaF, 2 mM AlCl3); buffer, pH and temperature not in the material. Cryo-EM: Mfd in 20 mM Tris-HCl pH 8, 100 mM NaCl, 20 mM MgCl2, 2 mM TCEP; conditions: protein: recombinant; tags: N-terminal His tag, cleaved with PreScission; blunt

Row | Molecule | Kd [1] | Kd ([1]; 2 mM ATPgS) | Kd (Mfd wild type [2]; 2 mM ADP-AlFx) | Kd (Mfd wild type [2]; 2 mM ATPgS) | binding result (Mfd wild type [3])
1 | HEX-labeled 40mer dsDNA | 127 nM | 927 nM | 24 nM | 151 nM | 
2 | B1 |  |  |  |  | binds
